Target: T1, protein zero related (PZR), tyrosine-phosphorylated
T1 chain: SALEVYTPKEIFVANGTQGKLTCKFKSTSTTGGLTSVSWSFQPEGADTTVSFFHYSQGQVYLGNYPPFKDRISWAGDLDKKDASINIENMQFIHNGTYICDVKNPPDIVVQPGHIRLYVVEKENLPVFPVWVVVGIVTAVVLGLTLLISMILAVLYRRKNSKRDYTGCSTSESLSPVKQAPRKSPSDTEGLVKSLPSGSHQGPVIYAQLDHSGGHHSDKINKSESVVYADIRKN

B1: SH2 domain-truncated form of SHP-2 (protein)
chain: NPMVETLGTVLQLKQPLNTTRINAAEIESRVRELSKLAETTDKVKQGFWEEFETLQQQECKLLYSRKEGQRQENKNKNRYKNILPFDHTRVVLHDGDPNEPVSDYINANIIMPEFETKCNNSKPKKSYIATQGCLQNTVNDFWRMVFQENSRVIVMTTKEVERGKSKCVKYWPDEYALKEYGVMRVRNVKESAAHDYTLRELKLSKVGQGNTERTVWQYHFRTWPDHGVPSDPGGVLDFLEEVHHKQESIMDAGPVVVHCSAGIGRTGTFIVIDILIDIIREKGVDCDIDVPKTIQMVRSQRSGMVQTEAQYRFIYMAVQHYIETLQRRIEEEQKSKRKGHEYTNIKYSLADQTSGDQSPLPPCTPTPPCAEMREDSARVYENVGLMQQQKSFR
B1 was tested, and the “in vitro dephosphorylation of immuno-purified tyrosine-phosphorylated PZR (anti-phosphotyrosine Western blot)” value was “the truncated enzyme had essentially no effect”.

B2: tyrosine phosphatase SHP-2, native full-length form (protein)
chain: TSRRWFHPNITGVEAENLLLTRGVDGSFLARPSKSNPGDFTLSVRRNGAVTHIKIQNTGDYYDLYGGEKFATLAELVQYYMEHHGQLKEKNGDVIELKYPLNCADPTSERWFHGHLSGKEAEKLLTEKGKHGSFLVRESQSHPGDFVLSVRTGDDKGESNDGKSKVTHVMIRCQELKYDVGGGERFDSLTDLVEHYKKNPMVETLGTVLQLKQPLNTTRINAAEIESRVRELSKLAETTDKVKQGFWEEFETLQQQECKLLYSRKEGQRQENKNKNRYKNILPFDHTRVVLHDGDPNEPVSDYINANIIMPEFETKCNNSKPKKSYIATQGCLQNTVNDFWRMVFQENSRVIVMTTKEVERGKSKCVKYWPDEYALKEYGVMRVRNVKESAAHDYTLRELKLSKVGQGNTERTVWQYHFRTWPDHGVPSDPGGVLDFLEEVHHKQESIMDAGPVVVHCSAGIGRTGTFIVIDILIDIIREKGVDCDIDVPKTIQMVRSQRSGMVQTEAQYRFIYMAVQHYIETLQRRIEEEQKSKRKGHEYTNIKYSLADQTSGDQSPLPPCTPTPPCAEMREDSARVYENVGLMQQQKSFR
For B2, the “dephosphorylation of purified p43 in vitro (anti-phosphotyrosine Western blot)” value was “SHP-2 caused complete dephosphorylation of p43”, the “in vitro dephosphorylation of immuno-purified tyrosine-phosphorylated PZR” value was “higher concentrations of SHP-2 (up to 5 µg/ml) helped to push the dephosphorylation to near completion” and the “in vitro dephosphorylation of immuno-purified tyrosine-phosphorylated PZR (anti-phosphotyrosine Western blot)” value was “full length SHP-2 caused rapid dephosphorylation”.
